Laboratory results from US10752675B2, “Compounds for treating the remyelination blockade in diseases associated with the expression of HERV-W envelope protein” (GENEURO S.A., priority 2012, dated 2020).
Entries after “also recorded” stand apart in the source; their conditions may differ.

What was measured:
[1] = test system: MSRV-Env induced EAE in C57BL/6 mice; assay: EAE clinical score, Example 3.A (EAE induced with MOG and MSRV-Env); format: in vivo; settings: treatment from day 12 to day 29: GNbAc1 200 μg once, L-NAME 600 μg IP and SMT 1 mg IP every 4 days, DMF 1 mg daily in drinking water
Description: Pathogen free female C57BL/6 nice (6-8 weeks old) were purchased from the Charles River laboratories and maintained at the animal facilities for one week before immunization. One day before immunization, all mice have been weighed, and then evaluated on the Rotarod Test. Rotarod:
(§1) Animals were weighed and clinically scored 5 days per week according to the following criteria: 0=no signs; 1=tail paralysis or hyper-reflex of hind limb(s) or unilateral hind limb weakness; 2=bilateral hind limb or forelimb weakness; 3=plus unilateral paralysis or major deficit; 4=complete hind limb or forelimb paralysis; 5=plus partial paralysis or major deficit of opposite limbs; 6=moribund or dead. These were adapted from standard criteria, in order to reflect the more rapid induction of brain and cervical cord lesions with this model.
(§2) All groups of 6 (six) mice have been first injected s.c. in the neck on day 0 then in the dorsal flanks on day 7 and 14; with 200 μg of MOG/mouse+60 μg of MSRV-Env+IFA.
(§3) For Groups G to H, the treatments with GNbAc1, L-NAME, SMT and DMF alone or together with GNbAc1 with the doses indicated below, have been initiated on day 12 post immunization when the progression of EAE clinical symptoms was already observed. GNbAc1 humanized antibody was administered once, but L-Name or SMT was administered every 4 days until termination of the study on day 29. Regarding Groups E and H, attributed for the treatment with DMF, we have previously determined the volume of daily water consumption by each mouse and it has been determined that (in our condition), each mouse consumed around 3.5 ml drinking water per day. Thus, on the basis of this measurement, a dose of 1 mg DMF+0.08% Methocel per mouse were added to 3.5 ml drinking water daily.
350 ng of pertussis toxin (PTX) per animal was injected (i.p.) in all groups on the same day following each immunogen injection, and replicated 2 days later, as usual in EAE protocols in order to facilitate the migration lymphocytes through the blood-brain barrier.

[2] = test system: MSRV-Env induced EAE in C57BL/6 mice; assay: Rotarod test, Example 3.A (MSRV-Env induced EAE); format: in vivo; settings: Example 3.A doses
Experimental: 9 and 8 days before immunization. Transfer of mice, in their home cages, from the holding room to the experimental room. Mice are habituated to the experimental room for 15 min. During the training period, each mouse was placed on the rotarod at a constant speed (4 rpm) if one mouse was falling, she was back on rotarod, when mice were comfortable on the rotarod, mice were running during 120 sec. All mice were returned to their cage, the speed was increased to 13 rpm and mice were again put on the rotarod for 120 sec. All mice were returned to their cage, the speed was increased to 19 rpm and mice were again put on the rotarod for 120 sec. The experimental-room environment were kept constant between test sessions with respect to temperature, and light intensity.
(§4) 1 day before each immunization, mice were transferred in their home cages, from the holding room to the experimental room. Mice were habituated to the experimental room for 15 min. Mice then received two trials at 10 increasing speed levels, ranging from 7 to 40 rpm. Individual delays before falling off the rotarod (for the two trials at each speed level) was recorded until 60 sec. Thus, training and performance on the Rotarod system were determined for each animal.
(§5) The ROTAROD test results are expressed as kinetics of the mean of individual scores for each group with SEM indicated by bars, for each test day and for each test speed within the discriminating range for neuromotor impairment in present conditions (16 to 29 rpm).
They are calculated for each individual mouse, for each test day and for each speed value, as the relative gain or loss of time on Rotarod (before falling), compared to the first test day at the same speed (D-7, before starting the disease induction in relevant groups). The value is calculated as “Time on Rotarod at dayX”−“Time at Day-7 for the same mouse at the same speed”. Figures illustrate the kinetics for the different groups on the whole study period, for representative discriminative speed values when validated to differentiate ill from healthy animals in our conditions (e.g., too high or too low speed values either made healthy ones fall immediately or ill ones capable to sustain a slow movement).
as §2, §3

[3] = Weight gain kinetics, Example 3.B; format: in vivo, mice
Experimental: Mice were weighed 3 times a week on Monday, Wednesday and Friday during all experiment.
All mice received three injections s.c. on the neck at DO, on the dorsal flank at D7 and D14. Here, mice from Group A were injected with 200 μg/mouse of MOG and IFA only, without Env, thus constituting a negative control group without EAE in the present series (ctrl −). The positive control group with untretated EAE in the present series is represented by Group B (ctrl +). Other groups were injected with 200 μg of MOG/mouse+MSRV-ENV (60 μg)+IFA, with treatments as indicated in the above summarized presentation. Treatments have been initiated on day 12 post immunization in their corresponding groups.
The clinical signs score and weight were evaluated regularly as described above. The EAE clinical score kinetics over the study period are represented in FIGS. 22, 23 and 24. The weight curves, indicating relative weight gain compared to the day before first injection of immunogens, are presented in FIGS. 25, 26 and 27.

[4] = test system: MSRV-Env induced EAE in C57BL/6 mice; assay: Rotarod test, Example 3.B (MSRV-Env induced EAE); format: in vivo; settings: GNbAC1 500 μg/mouse given alone, all relevant speeds (16, 26, 29 rpm)
Experimental: as §4, §5
They are calculated for each individual mouse, for each test day and for each speed value, as the relative gain or loss of time on Rotarod (before falling), compared to the first test day at the same speed (D-7, before starting the disease induction in relevant groups). The value is calculated as “Time on Rotarod at dayX”−“Time at Day-7 for the same mouse at the same speed”. […]

[5] = test system: MSRV-Env induced EAE in C57BL/6 mice; assay: EAE clinical score, Example 3.C (GNbAC1 and Sodium Fumarate); format: in vivo
Description: as §1

B1: GNbAC1: recombinant humanized anti-Env IgG4 monoclonal antibody comprising the CDRs of SEQ ID No. 1 to 6 (antibody, chains of the INN, looked up, V domains shown)
VH: QVQLVQSGAEVKKPGSSVKVSCKASGYTFTDYEMHWVRQAPGQGLEWIGAVAPETGGTAYNQKFKGRATITADKSTSTAYMELSSLRSEDTAVYYCTSTVVPFAYWGQGTLVTVSS
VL: QIQLTQSPSSLSASVGDRVTITCSASSSVSYMYWYQQKPGKAPKAWIYRTSNLASGVPSRFSGSGSGTDYTLTISSLQPEDFATYYCQQYQSLPLTFGGGTKVEIK
[1]
  EAE clinical score kinetics and recovery: improve after its injection
[1]; listed as GNbAc1
  EAE clinical score kinetics and recovery: diminished slightly
[2]; compared to untreated group A / to GNbAc1 alone
  Rotarod scores in all conditions (16 to 29 rpm tests): greatly stabilized and/or improved scores
[2]; end of study period
  Time on Rotarod at 23 rpm relative to Day -7: recovered a score similar to control mice without disease induction
  Time on Rotarod at 26 rpm relative to Day -7: recovered a score similar to D,G,C,E and H groups
  Time on Rotarod at 29 rpm relative to Day -7: recovered a score similar to control mice without disease induction
[3]; GNbAC1 200 μg
  weight gain over the study period, endpoint: endpoints equivalent to mock-controls
[3]; GNbAC1 500 μg, alone or with DMF
  weight gain over the study period, endpoint: best endpoint; also recorded: positive effect on the global health
[4]
  Rotarod, improvement of neurological deficit: significantly the most efficient product
[5]; from day 12: GNbAC1 500 μg IP, Sodium Fumarate 10 mg daily in 3.5 ml drinking water, versus isotype control antibody
  EAE clinical score kinetics and endpoint: significant reversion of their clinical score curves; also recorded: equivalent and significantly good recovery at the end of the study
[5]; treatment started day 12
  day from which clinical improvement appeared: 15 days
